In experiment [1] the target is C3 fragments (iC3b, C3dg and C3d) of human complement component C3, deposited on cells or tissue (human) (UniProt P01024). Put plainly: flow cytometry, rabbit RBCs + human serum + TT30 0.46 µM, 2 hr, panel A8-2-3 [Time: 2 hr].
Experiment [2] has the same target. As to the kind of experiment: flow cytometry, rabbit RBCs + human serum + TT30 0.46 µM, time 0, panel A8-2-0 [Time: 0].
The target is the same in experiment [3]. Put plainly: flow cytometry, rabbit RBCs + human serum, no TT30, panel A12-3-0.
Experiment [4] has the same target. As to the kind of experiment: flow cytometry, rabbit RBCs + human serum + TT30 0.46 µM, 4 hr, panel A8-4-3 [Time: 4 hr].
Experiment [5] shares this target. Put plainly: flow cytometry, rabbit RBCs + human serum + TT30 0.46 µM, time 0, panel A8-3-0 [Time: 0].
For experiment [6] the target is unchanged. Put plainly: flow cytometry, rabbit RBCs + human serum + TT30 0.46 µM, 2 hr, panel A8-2-2 [Time: 2 hr].
Experiment [7] shares this target. Put plainly: flow cytometry, rabbit RBCs + human serum + TT30 0.06 µM, time 0, panel A11-2-0 [Time: 0].
For experiment [8] the target is unchanged. Put plainly: flow cytometry, rabbit RBCs + human serum, no TT30, panel A12-2-0.
Experiment [9] has the same target. As to the kind of experiment: flow cytometry, rabbit RBCs + human serum + TT30 3.7 µM, time 0, panel A2-2-0; filing: no C3 fragments or TT30 on the cells at this concentration [Time: 0].
For experiment [10] the target is unchanged. As to the kind of experiment: flow cytometry, rabbit RBCs + human serum + TT30 0.06 µM, time 0, panel A11-3-0 [Time: 0].
For experiment [11] the target is unchanged. As to the kind of experiment: flow cytometry, rabbit RBCs + human serum + TT30 0.46 µM, 24 hr, panel A8-24-3 [Time: 24 hr].
For experiment [12] the target is unchanged. As to the kind of experiment: flow cytometry, rabbit RBCs + human serum + TT30 3.7 µM, time 0, panel A2-3-0; filing: no C3 fragments or TT30 on the cells at this concentration [Time: 0].
Experiment [13] shares this target. Put plainly: flow cytometry, rabbit RBCs + human serum + TT30 1.4 µM, time 0, panel A5-2-0 [Time: 0].
Experiment [14] shares this target. As to the kind of experiment: flow cytometry, rabbit RBCs + human serum + TT30 0.46 µM, 4 hr, panel A8-4-2 [Time: 4 hr].
For experiment [15] the target is unchanged. Put plainly: flow cytometry, rabbit RBCs + human serum + TT30 0.46 µM, 24 hr, panel A8-24-2 [Time: 24 hr].
Experiment [16] has the same target. As to the kind of experiment: flow cytometry, rabbit RBCs + human serum + TT30 1.4 µM, time 0, panel A5-3-0 [Time: 0].
The target is the same in experiment [17]. As to the kind of experiment: flow cytometry, rabbit RBCs + human serum + TT30 1.4 µM, time 0, panel A5-1-0; isotype control for anti-C3d [Time: 0].
Experiment [18] has as its target TT30 (human). Put plainly: flow cytometry, rabbit RBCs + human serum + TT30 0.46 µM, 4 hr, panel A8-4-2; isotype control for HB5 [Time: 4 hr].
The target in experiment [19] is TT30 (human). Put plainly: flow cytometry, rabbit RBCs + human serum + TT30 0.46 µM, 2 hr, panel A8-2-2; isotype control for HB5 [Time: 2 hr].
Sequence of TT30 (human) (chain, as listed by the source limits assumed): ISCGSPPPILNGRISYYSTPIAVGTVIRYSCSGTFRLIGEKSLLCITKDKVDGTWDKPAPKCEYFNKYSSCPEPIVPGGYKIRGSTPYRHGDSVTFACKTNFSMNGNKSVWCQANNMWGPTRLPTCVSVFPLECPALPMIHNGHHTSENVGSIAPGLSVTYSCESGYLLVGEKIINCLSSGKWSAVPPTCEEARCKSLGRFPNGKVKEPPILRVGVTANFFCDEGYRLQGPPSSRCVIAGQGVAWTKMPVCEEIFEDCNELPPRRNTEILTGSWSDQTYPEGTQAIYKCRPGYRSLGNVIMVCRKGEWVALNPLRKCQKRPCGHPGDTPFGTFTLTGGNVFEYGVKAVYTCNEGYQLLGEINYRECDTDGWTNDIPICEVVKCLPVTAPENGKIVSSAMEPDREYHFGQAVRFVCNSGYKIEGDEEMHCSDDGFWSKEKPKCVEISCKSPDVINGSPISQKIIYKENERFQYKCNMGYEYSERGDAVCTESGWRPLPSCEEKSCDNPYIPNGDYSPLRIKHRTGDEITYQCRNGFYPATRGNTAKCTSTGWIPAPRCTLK
In experiment [20] the target is TT30 (human). Put plainly: flow cytometry, rabbit RBCs + human serum + TT30 0.46 µM, 24 hr, panel A8-24-2; isotype control for HB5 [Time: 24 hr].
For experiment [21], the target named is TT30 (human). Put plainly: flow cytometry, rabbit RBCs + human serum + TT30 1.4 µM, time 0, panel A5-2-0; isotype control for HB5 [Time: 0].

Sequence of UniProt P01024 (P01024 1002-1303 limits assumed): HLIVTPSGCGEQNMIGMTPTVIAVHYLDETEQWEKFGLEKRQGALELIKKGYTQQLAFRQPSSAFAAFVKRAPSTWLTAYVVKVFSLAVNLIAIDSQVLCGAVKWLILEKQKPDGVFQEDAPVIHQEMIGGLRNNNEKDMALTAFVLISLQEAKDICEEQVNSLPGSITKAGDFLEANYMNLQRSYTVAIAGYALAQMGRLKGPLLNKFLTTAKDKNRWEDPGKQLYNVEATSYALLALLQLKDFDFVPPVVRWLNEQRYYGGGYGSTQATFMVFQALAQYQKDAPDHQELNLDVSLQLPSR

For C3d (A702)-APC (antibody), the % of gated cells in Q4-UL (C3d-APC+, HB5-FITC-) in experiment [1] was 25.3%; in experiment [3] it was 94.9%; in [4], 38.2%; in experiment [5], 11.5%; in experiment [10] it was 78.9%; in experiment [11] it was 51.7%. Also, the % of gated cells in Q4-UL (C3d-APC+, HB5-FITC-) turned out to be 0% in experiment [12] and 81% in experiment [16]. For the same substance, the % of gated cells in Q4-UR (C3d-APC+, HB5-FITC+) in experiment [1] stood at 67.5%; in experiment [3], 2.6%; in [4], 54.7%; in experiment [5], 69.8%; in [10], 5.3%; in experiment [11] it was 44.4%. In addition, the % of gated cells in Q4-UR (C3d-APC+, HB5-FITC+) in experiment [12] amounted to 0%; in experiment [16], 4%. Also, the % of gated cells in Q4-UL (C3d-APC+, IgG2a-FITC-) amounted to 84.8% in experiment [2]; 89.8% in experiment [6]; 90.3% in experiment [7]; 100% in experiment [8]; 2.4% in [9]; 84.9% in experiment [13]. Further, the % of gated cells in Q4-UL (C3d-APC+, IgG2a-FITC-) in experiment [14] was 93.4%; in [15], 97.9%. The % of gated cells in Q4-UR (C3d-APC+, IgG2a-FITC+) worked out at 0% in [2]; 0.3% in experiment [6]; 0% in experiment [7]; 0% in experiment [8]; 0% in [9]; 0% in experiment [13]. For the same substance, the % of gated cells in Q4-UR (C3d-APC+, IgG2a-FITC+) is 0% in [14] and 0.3% in experiment [15].
In the case of IgG1-APC (antibody), the % of gated cells in Q4-UR (IgG1-APC+, HB5-FITC+) in experiment [17] was 0.4%.
In the case of IgG2a-FITC (antibody), the % of gated cells in Q4-LR (C3d-APC-, IgG2a-FITC+) with TT30 (human) [18] stood at 0.3%; with TT30 (human) [19] it was 0.3%; in the experiment with TT30 (human) [20], 0.3%; with TT30 (human) [21] it was 0.5%. Besides, the % of gated cells in Q4-UR (C3d-APC+, IgG2a-FITC+) with TT30 (human) [19] and in the experiment with TT30 (human) [20] was 0.3% in each case.

Values taken from patent publication US10239937.
